The text below walks through data of US11472855, “RNA-binding protein” (Panitch Schwarze Belisario & Nadel LLP).

Conditions in all cases: label: Alexa680 at 5' and 3'
The target in series [1] is T1, hPUF_MT(R2_N12S,Q16R, R3→R5, R4→R6) (R2 repeat N12S,Q16R).
T1 chain: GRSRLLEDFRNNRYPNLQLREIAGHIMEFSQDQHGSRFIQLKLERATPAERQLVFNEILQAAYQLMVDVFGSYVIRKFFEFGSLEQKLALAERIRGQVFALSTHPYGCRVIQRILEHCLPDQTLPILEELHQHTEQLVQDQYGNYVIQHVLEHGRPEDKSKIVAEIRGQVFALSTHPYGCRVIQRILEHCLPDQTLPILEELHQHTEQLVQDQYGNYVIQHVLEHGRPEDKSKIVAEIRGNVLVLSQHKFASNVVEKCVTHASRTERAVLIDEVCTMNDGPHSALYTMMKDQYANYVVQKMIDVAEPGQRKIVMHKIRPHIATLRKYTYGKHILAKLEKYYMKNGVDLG
Nature of the series: EMSA; binds C exclusively.

The next series addresses T2, hPUF_MT(R3→R5, R4→R6).
T2 chain: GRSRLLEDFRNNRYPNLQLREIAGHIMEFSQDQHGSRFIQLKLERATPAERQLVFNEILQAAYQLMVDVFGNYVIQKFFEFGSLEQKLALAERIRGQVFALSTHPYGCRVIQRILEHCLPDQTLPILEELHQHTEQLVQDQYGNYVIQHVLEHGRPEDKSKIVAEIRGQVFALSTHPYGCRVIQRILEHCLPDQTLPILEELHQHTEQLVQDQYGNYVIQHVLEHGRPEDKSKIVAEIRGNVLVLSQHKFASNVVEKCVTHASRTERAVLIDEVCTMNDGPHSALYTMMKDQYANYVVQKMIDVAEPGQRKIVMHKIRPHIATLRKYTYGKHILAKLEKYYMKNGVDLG
Kind of series: EMSA; binds U (R2 position) >> C. On the procedure: Each purified protein was diluted to a desired concentration with Binding Buffer, mixed with a binding buffer and Ribonuclease Inhibitor, Cloned (Invitrogen), and then, mixed with the RNA probe at a final concentration of 0.5 nM. […] A binding reaction was performed at 4° C. for 30 min. Subsequently, the solution was gently mixed by pipetting. A binding reaction was performed again at 4° C. for […].
The solution obtained after the binding reaction was applied to 6% a non-denaturing polyacrylamide gel, followed by electrophoresis at 4° C. and 200 V. When the electrophoresis marker (2 μL of 6×Dye+10 μL of 1×binding buffer) moved by 0.5 cm, the voltage was changed to 100 V, and electrophoresis was continuously performed until the electrophoresis marker moved by 3 cm. Finally, RNA was detected with Odyssey.

Series [2] deals with T3, hPUF_MT(R2_N12S,Q16E, R3→R5, R4→R6) (R2 repeat N12S,Q16E).
T3 chain: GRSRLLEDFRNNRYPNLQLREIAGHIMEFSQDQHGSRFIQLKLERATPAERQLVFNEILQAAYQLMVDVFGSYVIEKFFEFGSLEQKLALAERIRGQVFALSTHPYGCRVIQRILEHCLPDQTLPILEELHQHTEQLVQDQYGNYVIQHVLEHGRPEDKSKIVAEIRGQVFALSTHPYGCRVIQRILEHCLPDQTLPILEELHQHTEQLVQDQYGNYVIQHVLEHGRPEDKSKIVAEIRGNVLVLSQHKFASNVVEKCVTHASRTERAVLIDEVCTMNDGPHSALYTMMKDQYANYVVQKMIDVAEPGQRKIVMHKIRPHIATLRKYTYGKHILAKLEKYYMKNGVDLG
Nature of the series: EMSA; binds G exclusively.

Series [3] addresses T4, hPUF_MT(R8_N12S,Q16E, R3→R5, R4→R6) (R8 repeat N12S,Q16E).
T4 chain: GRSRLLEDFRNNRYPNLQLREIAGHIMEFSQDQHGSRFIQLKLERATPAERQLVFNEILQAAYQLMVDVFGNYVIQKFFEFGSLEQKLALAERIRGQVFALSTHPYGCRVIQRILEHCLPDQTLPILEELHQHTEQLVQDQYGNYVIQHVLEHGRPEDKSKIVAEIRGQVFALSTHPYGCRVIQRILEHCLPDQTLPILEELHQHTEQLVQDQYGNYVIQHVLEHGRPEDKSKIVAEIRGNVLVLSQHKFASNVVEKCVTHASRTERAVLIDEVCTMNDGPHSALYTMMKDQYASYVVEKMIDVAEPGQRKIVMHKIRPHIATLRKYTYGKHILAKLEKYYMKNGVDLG
Kind of series: EMSA; binds G exclusively.

In another series the target is T5, hPUF_MT(R7_IRG) (UniProt Q14671 SEQ:1-342).
T5 chain: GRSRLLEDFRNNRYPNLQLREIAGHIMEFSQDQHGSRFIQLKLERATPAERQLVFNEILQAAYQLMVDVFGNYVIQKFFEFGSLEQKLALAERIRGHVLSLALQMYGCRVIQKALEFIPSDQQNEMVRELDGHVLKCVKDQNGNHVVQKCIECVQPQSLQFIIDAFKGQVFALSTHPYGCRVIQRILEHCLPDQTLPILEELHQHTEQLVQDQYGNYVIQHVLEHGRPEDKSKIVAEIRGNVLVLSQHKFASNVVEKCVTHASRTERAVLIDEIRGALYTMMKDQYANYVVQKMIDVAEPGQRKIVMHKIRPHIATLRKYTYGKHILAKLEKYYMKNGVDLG
Nature of the series: EMSA; comparable to WT.

Another series addresses T6, hPUF_MT(R7_ILQ) (UniProt Q14671 SEQ:1-342).
T6 chain: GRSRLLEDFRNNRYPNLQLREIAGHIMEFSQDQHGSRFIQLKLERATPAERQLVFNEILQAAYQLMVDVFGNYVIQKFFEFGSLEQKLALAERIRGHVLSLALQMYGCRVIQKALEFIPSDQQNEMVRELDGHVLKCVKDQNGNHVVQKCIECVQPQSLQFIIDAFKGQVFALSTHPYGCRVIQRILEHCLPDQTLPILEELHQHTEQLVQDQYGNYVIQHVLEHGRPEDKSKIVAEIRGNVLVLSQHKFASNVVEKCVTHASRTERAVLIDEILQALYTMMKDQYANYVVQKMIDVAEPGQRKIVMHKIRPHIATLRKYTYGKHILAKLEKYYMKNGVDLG
Nature of the series: EMSA; comparable to WT.

With CCAGAAUUGUAUAUAUUCG (ssRNA) [OTS-1511], the binding result in series [1] was “no binding”; with hPUF_MT(R3→R5, R4→R6), “binds”; in series [2], “no binding”; in series [3], “no binding”; with hPUF_MT(R7_IRG), “binds”; with hPUF_MT(R7_ILQ), “binds”.
